Values belong to the binder of their own block, whether it stands above or below them.
Assays:
Experiment in all cases: holdup assay
Set-up in all cases: key: below the threshold = too weak to quantify, mostly under pKd 3.1 to 4
APBA1_1, Q02410 = target: T1, APBA1_1, Q02410
T1 sequence (Q02410 651-752, limits assumed, looked up): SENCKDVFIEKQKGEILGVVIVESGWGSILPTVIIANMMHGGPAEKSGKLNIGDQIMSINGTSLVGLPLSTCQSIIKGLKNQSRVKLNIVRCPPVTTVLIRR

APBA1_2, Q02410 = target: T2, APBA1_2, Q02410
T2 sequence (Q02410 742-832, limits assumed, looked up): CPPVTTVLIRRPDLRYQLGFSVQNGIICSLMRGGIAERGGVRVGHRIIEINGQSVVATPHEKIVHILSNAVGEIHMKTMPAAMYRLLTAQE

DFNB31_2, Q9P202 = target: T3, DFNB31_2, Q9P202
T3 sequence (Q9P202 274-371, limits assumed, looked up): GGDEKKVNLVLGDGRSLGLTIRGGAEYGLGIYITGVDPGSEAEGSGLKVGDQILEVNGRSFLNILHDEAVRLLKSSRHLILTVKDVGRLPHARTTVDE

DLG4_3, P78352 = target: DLG4_3, P78352
FRMPD1, Q5SYB0 = target: T4, FRMPD1, Q5SYB0
T4 sequence (Q5SYB0 52-145, limits assumed, looked up): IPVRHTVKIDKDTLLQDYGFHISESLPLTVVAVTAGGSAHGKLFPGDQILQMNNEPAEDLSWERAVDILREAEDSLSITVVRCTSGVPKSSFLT

GIPC2, Q8TF65 = target: GIPC2, Q8TF65
GOPC, Q9HD26 = target: GOPC, Q9HD26
GRIP1_4, Q9Y3R0 = target: T5, GRIP1_4, Q9Y3R0
T5 sequence (Q9Y3R0 467-571, limits assumed, looked up): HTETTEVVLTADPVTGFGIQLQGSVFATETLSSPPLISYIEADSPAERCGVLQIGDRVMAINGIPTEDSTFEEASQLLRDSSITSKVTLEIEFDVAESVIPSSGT

GRIP1_5, Q9Y3R0 = target: T6, GRIP1_5, Q9Y3R0
T6 sequence (Q9Y3R0 568-668, limits assumed, looked up): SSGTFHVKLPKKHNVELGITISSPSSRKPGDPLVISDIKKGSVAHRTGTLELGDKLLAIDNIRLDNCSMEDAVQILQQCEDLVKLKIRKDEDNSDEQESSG

HTRA1, Q92743 = target: HTRA1, Q92743
HTRA3, P83110 = target: T7, HTRA3, P83110
T7 sequence (P83110 354-453, limits assumed, looked up): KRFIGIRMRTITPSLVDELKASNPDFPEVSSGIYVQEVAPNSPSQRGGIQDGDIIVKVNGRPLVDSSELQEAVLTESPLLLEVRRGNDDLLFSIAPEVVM

HTRA4, P83105 = target: T8, HTRA4, P83105
T8 sequence (P83105 378-476, limits assumed, looked up): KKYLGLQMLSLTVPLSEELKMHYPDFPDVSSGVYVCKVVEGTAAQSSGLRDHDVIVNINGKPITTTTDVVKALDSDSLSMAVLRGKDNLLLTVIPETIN

Inadl_1, Q8NI35 = target: Inadl_1, Q8NI35
Inadl_2, Q8NI35 = target: Inadl_2, Q8NI35
Inadl_3, Q8NI35 = target: Inadl_3, Q8NI35
Inadl_4, Q8NI35 = target: Inadl_4, Q8NI35
MAGI2_4, Q86UL8 = target: MAGI2_4, Q86UL8
MPDZ_10, O75970 = target: T9, MPDZ_10, O75970
T9 sequence (O75970 1624-1722, limits assumed, looked up): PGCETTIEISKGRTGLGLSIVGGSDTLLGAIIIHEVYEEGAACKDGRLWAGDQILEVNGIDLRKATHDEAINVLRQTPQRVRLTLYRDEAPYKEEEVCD

NHERF4_1, Q86UT5-2 = target: NHERF4_1, Q86UT5-2
NOS1, P29475 = target: NOS1, P29475
PDZRN3_1, Q9UPQ7 = target: T10, PDZRN3_1, Q9UPQ7
T10 sequence (Q9UPQ7 244-349, limits assumed, looked up): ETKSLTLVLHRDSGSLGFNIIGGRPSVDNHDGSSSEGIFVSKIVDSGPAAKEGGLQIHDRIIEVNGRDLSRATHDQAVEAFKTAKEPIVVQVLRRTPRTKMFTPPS

SCRIB_2, Q14160 = target: SCRIB_2, Q14160
SCRIB_3, Q14160 = target: SCRIB_3, Q14160
TIAM2, Q8IVF5 = target: T11, TIAM2, Q8IVF5
T11 sequence (Q8IVF5 885-986, limits assumed, looked up): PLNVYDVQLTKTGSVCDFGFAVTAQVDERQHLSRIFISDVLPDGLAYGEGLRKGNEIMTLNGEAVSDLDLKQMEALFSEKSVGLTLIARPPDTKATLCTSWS

TJP2_1, Q9UDY2 = target: TJP2_1, Q9UDY2
TJP3_3, O95049 = target: T12, TJP3_3, O95049
T12 sequence (O95049 375-456, limits assumed, looked up): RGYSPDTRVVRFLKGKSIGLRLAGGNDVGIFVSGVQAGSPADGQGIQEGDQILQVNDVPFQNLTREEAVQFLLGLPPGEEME

[1] = plain residues with an end cap or a label only (N-terminal biotin on a linker: ado-ado)
[2] = plain residues with an end cap or a label only (N-terminal biotin on a linker: ttds)

NOS1, P29475, sequence (P29475 9-101): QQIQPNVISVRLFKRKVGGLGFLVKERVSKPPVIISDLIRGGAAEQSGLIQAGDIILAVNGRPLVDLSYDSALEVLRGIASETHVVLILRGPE
Inadl_4, Q8NI35, sequence (Q8NI35 547-651): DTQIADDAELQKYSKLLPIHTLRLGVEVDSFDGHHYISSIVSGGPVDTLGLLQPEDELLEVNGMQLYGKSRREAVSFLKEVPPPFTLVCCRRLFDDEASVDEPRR
TJP2_1, Q9UDY2, sequence (Q9UDY2 24-128): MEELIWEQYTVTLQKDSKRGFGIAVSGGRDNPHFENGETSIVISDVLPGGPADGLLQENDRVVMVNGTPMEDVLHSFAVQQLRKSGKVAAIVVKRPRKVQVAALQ
SCRIB_3, Q14160, sequence (Q14160 999-1103): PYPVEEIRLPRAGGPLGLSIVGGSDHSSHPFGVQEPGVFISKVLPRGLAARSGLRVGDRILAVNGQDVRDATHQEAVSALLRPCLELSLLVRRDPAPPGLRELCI
Inadl_3, Q8NI35, sequence (Q8NI35 359-469): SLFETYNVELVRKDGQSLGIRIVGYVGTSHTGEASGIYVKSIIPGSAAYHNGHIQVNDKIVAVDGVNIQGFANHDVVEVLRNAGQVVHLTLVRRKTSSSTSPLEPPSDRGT
GIPC2, Q8TF65, sequence (Q8TF65 112-203): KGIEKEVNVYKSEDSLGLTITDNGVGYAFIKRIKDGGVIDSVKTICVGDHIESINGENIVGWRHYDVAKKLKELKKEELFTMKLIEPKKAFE
Inadl_1, Q8NI35, sequence (Q8NI35 113-229): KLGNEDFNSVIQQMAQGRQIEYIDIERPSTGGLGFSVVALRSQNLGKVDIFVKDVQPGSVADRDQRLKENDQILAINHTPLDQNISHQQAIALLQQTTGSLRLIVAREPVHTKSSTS
HTRA1, Q92743, sequence (Q92743 360-477): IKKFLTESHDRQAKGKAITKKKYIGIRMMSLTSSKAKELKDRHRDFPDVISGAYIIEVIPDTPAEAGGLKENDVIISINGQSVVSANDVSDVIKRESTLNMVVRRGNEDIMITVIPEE
NHERF4_1, Q86UT5-2, sequence (Q86UT5 other isoform, or with tags, fused parts or gaps): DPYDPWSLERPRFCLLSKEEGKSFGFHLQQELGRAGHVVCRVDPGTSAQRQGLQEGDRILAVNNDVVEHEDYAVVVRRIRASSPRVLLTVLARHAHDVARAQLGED
MAGI2_4, Q86UL8, sequence (Q86UL8 772-865): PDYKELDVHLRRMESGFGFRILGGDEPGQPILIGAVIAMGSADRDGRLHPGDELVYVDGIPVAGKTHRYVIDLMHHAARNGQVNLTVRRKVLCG
DLG4_3, P78352, sequence (P78352 306-403): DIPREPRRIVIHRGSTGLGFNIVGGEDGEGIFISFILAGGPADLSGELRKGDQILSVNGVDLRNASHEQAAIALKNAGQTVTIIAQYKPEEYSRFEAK
Inadl_2, Q8NI35, sequence (Q8NI35 238-335): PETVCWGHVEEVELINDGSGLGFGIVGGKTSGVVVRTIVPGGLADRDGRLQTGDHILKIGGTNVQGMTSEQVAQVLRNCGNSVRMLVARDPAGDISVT
SCRIB_2, Q14160, sequence (Q14160 857-960): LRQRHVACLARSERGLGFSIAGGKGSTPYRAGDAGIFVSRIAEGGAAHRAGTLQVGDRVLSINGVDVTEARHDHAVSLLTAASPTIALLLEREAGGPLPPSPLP

- pKd (APBA1_1, Q02410; [1]): below the threshold
- pKd (APBA1_2, Q02410; [1]): 3.66
- pKd (DFNB31_2, Q9P202; [1]): below the threshold
- pKd (DLG4_3, P78352; [1]): 4
- pKd (FRMPD1, Q5SYB0; [1]): below the threshold
- pKd (GIPC2, Q8TF65; [1]): below the threshold
- pKd (GOPC, Q9HD26; [1]): 3.52
- pKd (GRIP1_4, Q9Y3R0; [1]): below the threshold
- pKd (GRIP1_5, Q9Y3R0; [1]): 3.52
- pKd (HTRA1, Q92743; [1]): 3.5
- pKd (HTRA3, P83110; [1]): below the threshold
- pKd (HTRA4, P83105; [1]): below the threshold
- pKd (Inadl_1, Q8NI35; [1]): below the threshold
- pKd (Inadl_2, Q8NI35; [1]): below the threshold
- pKd (Inadl_3, Q8NI35; [1]): below the threshold
- pKd (Inadl_4, Q8NI35; [1]): below the threshold
- pKd (MAGI2_4, Q86UL8; [1]): 3.57
- pKd (MPDZ_10, O75970; [1]): below the threshold
- pKd (NHERF4_1, Q86UT5-2; [1]): 3.93
- pKd (NOS1, P29475; [1]): 3.78
- pKd (PDZRN3_1, Q9UPQ7; [1]): 3.65
- pKd (SCRIB_2, Q14160; [1]): 3.54
- pKd (SCRIB_3, Q14160; [1]): 3.57
- pKd (TIAM2, Q8IVF5; [1]): below the threshold
- pKd (TJP2_1, Q9UDY2; [1]): below the threshold
- pKd (TJP3_3, O95049; [1]): below the threshold
B1: RCN1, Q15293 (peptide)
chain: EDLTKNHDEL

- pKd (APBA1_1, Q02410; [1]): below the threshold
- pKd (APBA1_2, Q02410; [1]): below the threshold
- pKd (DFNB31_2, Q9P202; [1]): below the threshold
- pKd (DLG4_3, P78352; [1]): below the threshold
- pKd (FRMPD1, Q5SYB0; [1]): below the threshold
- pKd (GIPC2, Q8TF65; [1]): 3.87
- pKd (GOPC, Q9HD26; [1]): 3.55
- pKd (GRIP1_4, Q9Y3R0; [1]): below the threshold
- pKd (GRIP1_5, Q9Y3R0; [1]): below the threshold
- pKd (HTRA1, Q92743; [1]): 4.6
- pKd (HTRA3, P83110; [1]): below the threshold
- pKd (HTRA4, P83105; [1]): below the threshold
- pKd (Inadl_1, Q8NI35; [1]): below the threshold
- pKd (Inadl_2, Q8NI35; [1]): below the threshold
- pKd (Inadl_3, Q8NI35; [1]): 3.65
- pKd (Inadl_4, Q8NI35; [1]): below the threshold
- pKd (MAGI2_4, Q86UL8; [1]): below the threshold
- pKd (MPDZ_10, O75970; [1]): below the threshold
- pKd (NHERF4_1, Q86UT5-2; [1]): 3.77
- pKd (NOS1, P29475; [1]): below the threshold
- pKd (PDZRN3_1, Q9UPQ7; [1]): 4.72
- pKd (SCRIB_2, Q14160; [1]): below the threshold
- pKd (SCRIB_3, Q14160; [1]): 4.56
- pKd (TIAM2, Q8IVF5; [1]): below the threshold
- pKd (TJP2_1, Q9UDY2; [1]): below the threshold
- pKd (TJP3_3, O95049; [1]): below the threshold
B2: KIDINS220, Q9ULH0 (peptide)
chain: GFGEERESIL

- pKd (APBA1_1, Q02410; [2]): below the threshold
- pKd (APBA1_2, Q02410; [2]): below the threshold
- pKd (DFNB31_2, Q9P202; [2]): below the threshold
- pKd (DLG4_3, P78352; [2]): below the threshold
- pKd (FRMPD1, Q5SYB0; [2]): below the threshold
- pKd (GIPC2, Q8TF65; [2]): below the threshold
- pKd (GOPC, Q9HD26; [2]): below the threshold
- pKd (GRIP1_4, Q9Y3R0; [2]): below the threshold
- pKd (GRIP1_5, Q9Y3R0; [2]): below the threshold
- pKd (HTRA1, Q92743; [2]): below the threshold
- pKd (HTRA3, P83110; [2]): below the threshold
- pKd (HTRA4, P83105; [2]): below the threshold
- pKd (Inadl_1, Q8NI35; [2]): below the threshold
- pKd (Inadl_2, Q8NI35; [2]): below the threshold
- pKd (Inadl_3, Q8NI35; [2]): below the threshold
- pKd (Inadl_4, Q8NI35; [2]): below the threshold
- pKd (MAGI2_4, Q86UL8; [2]): below the threshold
- pKd (MPDZ_10, O75970; [2]): 3.51
- pKd (NHERF4_1, Q86UT5-2; [2]): below the threshold
- pKd (NOS1, P29475; [2]): below the threshold
- pKd (PDZRN3_1, Q9UPQ7; [2]): below the threshold
- pKd (SCRIB_2, Q14160; [2]): 4.59
- pKd (SCRIB_3, Q14160; [2]): 4.79
- pKd (TIAM2, Q8IVF5; [2]): below the threshold
- pKd (TJP2_1, Q9UDY2; [2]): below the threshold
- pKd (TJP3_3, O95049; [2]): below the threshold
B3: TANC2, Q9HCD6 (peptide)
chain: PKRPFVESNV

Reference: article PMC9482650, “Quantitative fragmentomics allow affinity mapping of interactomes” (Nature Communications, 2022)
